Changes are numbered by the printed parent chain. Where “and” joins values, the source holds several entries; their conditions need not be identical. Equal entries are not always repeated. Where two headings read alike, the source gives them in different places. Values belong to the binder of their own block, whether it stands above or below them.
T1: GCN4-TRAK1_(342-431) ( | human, UniProt Q9UPV9 342-431)
T1 chain: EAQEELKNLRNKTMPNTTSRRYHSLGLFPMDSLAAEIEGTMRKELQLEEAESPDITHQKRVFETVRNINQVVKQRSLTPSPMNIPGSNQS

T2: MBP-TRAK1_(342-431) ^400KR^401 to AA (human, UniProt Q9UPV9 342-431, ^400KR^401 to AA)
T2 sequence: T1 chain with K59A, R60A

B1: MBP-TRAK1_(342-431) (domain or fragment)
chain: T1 chain
B2: MIRO1_(177-591) (domain or fragment)
chain: EEKEMKPACIKALTRIFKISDQDNDGTLNDAELNFFQRICFNTPLAPQALEDVKNVVRKHISDGVADSGLTLKGFLFLHTLFIQRGRHETTWTVLRRFGYDDDLDLTPEYLFPLLKIPPDCTTELNHHAYLFLQSTFDKHDLDRDCALSPDELKDLFKVFPYIPWGPDVNNTVCTNERGWITYQGFLSQWTLTTYLDVQRCLEYLGYLGYSILTEQESQASAVTVTRDKKIDLQKKQTQRNVFRCNVIGVKNCGKSGVLQALLGRNLMRQKKIREDHKSYYAINTVYVYGQEKYLLLHDISESEFLTEAEIICDVVCLVYDVSNPKSFEYCARIFKQHFMDSRIPCLIVAAKSDLHEVKQEYSISPTDFCRKHKMPPPQAFTCNTADAPSKDIFVKLTTMAMYPHVTQADLKSST

Key:
MIRO1_(177-591) [1] = biological target: B2; test: ITC
MIRO1_(177-591) E328A [2] = biological target: T3, MIRO1_(177-591) E328A (human, UniProt Q8IXI2 177-591, E328A); test: ITC; 5 mM EGTA
MIRO1_(177-591) E208A [3] = biological target: T4, MIRO1_(177-591) E208A (human, UniProt Q8IXI2 177-591, E208A); test: ITC; 5 mM EGTA
MIRO1_(177-591) E328A [4] = biological target: T3, MIRO1_(177-591) E328A; test: ITC; 5 mM EGTA, 1 mM MgCl2, 0.1 uM GTP; experiment 1
MIRO1_(177-591) E208A [5] = biological target: T4, MIRO1_(177-591) E208A; test: as above
MIRO1_(177-591) E328A [6] = biological target: T3, MIRO1_(177-591) E328A; test: ITC; 5 mM EGTA, 1 mM MgCl2, 0.1 uM GTP; experiment 2
MIRO1_(177-591) E208A [7] = biological target: T4, MIRO1_(177-591) E208A; test: as above
MIRO1_(177-591) E328A [8] = biological target: T3, MIRO1_(177-591) E328A; test: ITC; 5 mM EGTA, 1 mM MgCl2, 0.1 uM GTP; experiment 3
MIRO1_(177-591) E208A [9] = biological target: T4, MIRO1_(177-591) E208A; test: as above
MIRO1_(177-591) [10] = biological target: B2; test: ITC; remark: listed apart in the source
MIRO1_(177-591) [11] = biological target: B2; test: ITC; remark: listed apart in the source
GCN4-TRAK1_(342-431) = biological target: T1, GCN4-TRAK1_(342-431); test: ITC
MBP-TRAK1_(342-431) = biological target: B1; test: ITC
[12] = biological target: T2, MBP-TRAK1_(342-431) ^400KR^401 to AA; test: ITC; 5 mM EGTA; MIRO1 in syringe
[13] = biological target: T2, MBP-TRAK1_(342-431) ^400KR^401 to AA; test: ITC; 5 mM EGTA; TRAK1 in syringe
[14] = biological target: T2, MBP-TRAK1_(342-431) ^400KR^401 to AA; test: ITC; 5 mM EGTA, 1 mM MgCl2, 0.1 uM GTP; experiment 1
[15] = biological target: T2, MBP-TRAK1_(342-431) ^400KR^401 to AA; test: ITC; 5 mM EGTA, 1 mM MgCl2, 0.1 uM GTP; experiment 2
[16] = biological target: T2, MBP-TRAK1_(342-431) ^400KR^401 to AA; test: ITC; 5 mM EGTA, 1 mM MgCl2, 0.1 uM GTP; experiment 3
[17] = biological target: T2, MBP-TRAK1_(342-431) ^400KR^401 to AA; test: ITC; 5 mM EGTA, 1 mM MgCl2, 0.1 uM GTP; reverse titration, experiment 1
[18] = biological target: T2, MBP-TRAK1_(342-431) ^400KR^401 to AA; test: ITC; 5 mM EGTA, 1 mM MgCl2, 0.1 uM GTP; reverse titration, experiment 2
[19] = biological target: T2, MBP-TRAK1_(342-431) ^400KR^401 to AA; test: ITC; 5 mM EGTA, 1 mM MgCl2, 0.1 uM GTP; reverse titration, experiment 3

Binder: B1
Kd (MIRO1_(177-591) [1]): 10.6 µM
Kd (MIRO1_(177-591) E328A [2]): 10.1 µM
Kd (MIRO1_(177-591) E208A [3]): 9.09 µM
Kd (MIRO1_(177-591) E328A [4]): 9.17 µM
Kd (MIRO1_(177-591) E208A [5]): 8.85 µM
Kd (MIRO1_(177-591) E328A [6]): 10.1 µM
Kd (MIRO1_(177-591) E208A [7]): 9.09 µM
Kd (MIRO1_(177-591) E328A [8]): 10.3 µM
Kd (MIRO1_(177-591) E208A [9]): 3.86 µM

Kd (MIRO1_(177-591) [10]): 9.62 µM and 6.1 µM and 5.65 µM
Kd (MIRO1_(177-591) [11]): 4.39 µM
Binder: PDITHQKRVFETVRNINQVVKQRSLTPSPMNIPGSNQSSAM [TRAK1_(394-434)]

Binder: B2
Kd (GCN4-TRAK1_(342-431)): 3.52 µM and 9.35 µM
Kd (MBP-TRAK1_(342-431)): 5.95 µM and 6.02 µM and 8 µM and 5.38 µM
Kd [12]: 7.52 µM
Kd [13]: 9.62 µM
Kd [14]: 4.39 µM
Kd [15]: 2.98 µM
Kd [16]: 3.98 µM
Kd [17]: 7.52 µM
Kd [18]: 11.3 µM
Kd [19]: 8.55 µM

— PMC10746525 (2023)
